Read-outs that look alike come from different tables or passages of the source.
Assays:
HCV RNA replication = HCV RNA replication under bile acids / FXR ligands; format: cell-based, Hepatitis C virus
[1] = target: T1, HCV ORFs (Gal4-DB fusions) (Hepatitis C virus genotype 1b, UniProt Q9WMX2); format: binding, HCV genotype 1b, isolate con1; settings: human protein as prey
T1 construct: expressed in transfected cells; host or cells: Saccharomyces cerevisiae MAV203 (IMAP1) / AH109 (IMAP2)

[2] = tested on: HCV ORFs (Gal4-DB fusions); format: binding, HCV genotype 1b, isolate con1; settings: human protein listed by gene symbol; the value names the HCV protein it interacts with
[3] = target: T2, GST-tagged viral proteins (Hepatitis C virus genotype 1b, UniProt Q9WMX2); assay: Validation by co-affinity purification (CoAP); format: binding, HCV genotype 1b, isolate con1; parameters: key: +: IMAP validation; −: not validated; NA: non assayable due to default of protein expression or to cellular protein directly interacting with GST
T2 construct: expressed in transfected cells; host or cells: HEK-293T
Description: C. Validation of Y2H interactions by co-affinity purification assay. Nine co-AP positive assays are shown, representing: NS5A-SORBS2 (1), NS3-CALCOCO2 (2), NS5A-BIN1 (3), NS5A-MOBK1B (4), NS5A-EFEMP1 (5), NS3-PSMB9 and NS5A-PSMB9 (6), NS5A-PPPIRI3L (7), NS3-RASAL2 (8). After pull-down with GST tagged viral baits (+) or with negative control GST alone (−), cellular preys are identified with anti-Flag antibody. Anti-GST antibody identifies either GST alone or GST-tagged viral baits. Expression of cellular preys in cell lysate is controlled by anti-Flag (bottom panel). […]
A random pool of 59 IMAP Y2H interactions was chosen for CoAP assays. Cellular ORFs (interacting domains found in Y2H screens) were cloned by recombinational cloning from a pool of human cDNA library or the MGC cDNA plasmids using KOD polymerase (Toyobo) into pDONR207 (Invitrogen). After validation by sequencing, these ORFs were transferred to pCi-neo-3xFLAG gateway-converted, and HCV ORFs were transferred into pDEST27 (GST fusion in N-term). HEK-293T cells were then co-transfected (JetPei, Polyplus) by each pair of plasmid encoding interacting proteins. Controls are GST alone against 3xFLAG-tagged preys. Two days after transfection, cells were harvested and lysed (0.5% NP-40, 20 mM Tris-HCl (pH 8.0), 180 mM NaCl, 1 mM EDTA, and complete protease inhibitor cocktail). Cell lysates were cleared by centrifugation for 20 min at 13,000 rpm at 4° C. and soluble protein complexes were purified using Glutathione Sepharose 4B beads (GE Healthcare). Beads were then washed extensively four times with lysis buffer and proteins were separated on SDS-PAGE and transferred to nitrocellulose membrane. GST-tagged viral proteins and 3xFLAG-tagged cellular proteins were detected using standard immunoblotting techniques using anti-GST (Covance) and anti-FLAG M2 (Sigma) monoclonal antibodies (21).

HCV proteins = target: T3, HCV proteins (Hepatitis C virus genotype 1b, UniProt Q9WMX2); assay: Validation by Y2H pairwise matrices; format: binding; settings: validation of interaction with HCV protein NS3;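 also: yeast two-hybrid pairwise tests of interactions first found in Y2H screens of HCV bait proteins against human cDNA libraries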
T3 construct: expressed in transfected cells

[4] = validation of interaction with HCV protein NS3
[5] = interaction with HCV protein NS5A
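For IMAP Y2H IMAP1 (number of IST) in this document: yeast two-hybrid screens using HCV genotype 1b proteins fused to Gal4-DB as baits against prey cDNA libraries from human spleen and foetal brain, IMAP1 via transformation and IMAP2 via mating.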
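For IMAP Y2H IMAP2 (number of IST) in this document: yeast two-hybrid screens using HCV genotype 1b proteins fused to Gal4-DB as baits against prey cDNA libraries from human spleen and foetal brain, IMAP1 via transformation and IMAP2 via mating.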
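For Interaction with viral protein in this document: yeast two-hybrid screens using HCV genotype 1b proteins fused to Gal4-DB as baits against prey cDNA libraries from human spleen and foetal brain, IMAP1 via transformation and IMAP2 via mating.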

T3 sequence (Q9WMX2 1027-1657): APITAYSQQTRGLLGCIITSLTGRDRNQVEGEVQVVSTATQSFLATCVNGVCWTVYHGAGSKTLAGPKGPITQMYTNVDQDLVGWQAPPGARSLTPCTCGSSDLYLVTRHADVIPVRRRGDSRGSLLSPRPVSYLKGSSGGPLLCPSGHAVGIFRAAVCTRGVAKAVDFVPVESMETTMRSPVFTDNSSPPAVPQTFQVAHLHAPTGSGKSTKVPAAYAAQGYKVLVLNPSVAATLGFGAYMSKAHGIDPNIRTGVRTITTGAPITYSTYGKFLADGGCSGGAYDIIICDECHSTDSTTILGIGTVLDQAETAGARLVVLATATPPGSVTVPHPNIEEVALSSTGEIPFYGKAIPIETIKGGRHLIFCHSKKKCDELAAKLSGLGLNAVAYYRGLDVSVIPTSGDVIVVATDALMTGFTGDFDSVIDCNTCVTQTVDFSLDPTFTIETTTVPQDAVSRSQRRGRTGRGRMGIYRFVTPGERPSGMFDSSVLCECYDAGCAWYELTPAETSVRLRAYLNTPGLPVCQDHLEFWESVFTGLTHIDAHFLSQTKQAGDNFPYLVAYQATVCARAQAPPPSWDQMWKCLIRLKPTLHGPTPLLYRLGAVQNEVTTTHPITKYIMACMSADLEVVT

Compound | IMAP Y2H IMAP2 (number of IST) ([1]; HCV protein NS3 as bait) | Interaction with viral protein [2] | CoAP [3, 4] | other results
C/C=C1\C(=O)C[C@H]2[C@@H]3CCC4=CC(=O)CC[C@]4(C)[C@H]3CC[C@]12C [guggulsterone] |  |  |  | effect on the up-regulation of HCV replication induced by BAs (HCV RNA replication; FXR antagonism, in presence of BAs): blocked the up-regulation induced by BAs; inhibition of basal level of HCV replication (HCV RNA replication; guggulsterone alone): tenfold
ACTN2 | 6 | NS3 | − | IMAP Y2H IMAP1 (number of IST) ([1]; HCV protein NS3 as bait): 10; Y2H matrices (HCV proteins): +
CALCOCO2 | 2 | NS3 | + | IMAP Y2H IMAP1 (number of IST) ([1]; HCV protein NS3 as bait): 5; Y2H matrices (HCV proteins): +
KPNA1 | 8 | NS3 | + | 
PPP1R13L |  | NS5A |  | IMAP Y2H IMAP2 (number of IST) ([1]; HCV protein NS5A as bait): 2; CoAP [3, 5]: +
SMURF2 | 4 | NS3 and NS2 | + | 
ZNF646 |  |  |  | IMAP Y2H IMAP2 (number of IST) ([1]; HCV protein NS5A as bait): 2; CoAP [3, 5]: −
deoxycholate |  |  |  | up-regulation of HCV RNA replication (HCV RNA replication): more than tenfold
